How the values were obtained:
[1] = system: AtEndoV (Y100A) (Arabidopsis thaliana); experiment: SPR; conditions: SPR (ProteOn XPR36, NLC chip): PBS, 0.005% Tween 20, pH 7.4, 1 mM EDTA, no divalent metal, 25 C, protein 31.25-500 nM
[2] = system: AtEndoV (WT) (Arabidopsis thaliana); experiment: SPR; conditions: SPR (ProteOn XPR36, NLC chip): PBS, 0.005% Tween 20, pH 7.4, 1 mM EDTA, no divalent metal, 25 C, protein 31.25-500 nM
[3] = N at position 11 = deoxyinosine

Sequence	Kd ([1]; N at position 11 = inosine)	Kd ([2]; N at position 11 = inosine)	Kd [1, 3]	Kd [2, 3]
CUGUAUGAUGNAGAUGCUGAC [ssRNA(I) 21-mer]	0.12 µM	0.002 µM		
CTGTATGATGNAGATGCTGAC [ssDNA(dI) 21-mer]			160 µM	220 µM
